Data on one molecule can be found in article PMC5333631 (Scientific Reports, 2017).

This assay concerns the target 6xHis-TrxA-BoNT/A2-HC (UniProt Q45894 871-1296). Description: pull-down. The following applies: both partners purified.

6xHis-TrxA-BoNT/A2-HC, sequence (Q45894 871-1296): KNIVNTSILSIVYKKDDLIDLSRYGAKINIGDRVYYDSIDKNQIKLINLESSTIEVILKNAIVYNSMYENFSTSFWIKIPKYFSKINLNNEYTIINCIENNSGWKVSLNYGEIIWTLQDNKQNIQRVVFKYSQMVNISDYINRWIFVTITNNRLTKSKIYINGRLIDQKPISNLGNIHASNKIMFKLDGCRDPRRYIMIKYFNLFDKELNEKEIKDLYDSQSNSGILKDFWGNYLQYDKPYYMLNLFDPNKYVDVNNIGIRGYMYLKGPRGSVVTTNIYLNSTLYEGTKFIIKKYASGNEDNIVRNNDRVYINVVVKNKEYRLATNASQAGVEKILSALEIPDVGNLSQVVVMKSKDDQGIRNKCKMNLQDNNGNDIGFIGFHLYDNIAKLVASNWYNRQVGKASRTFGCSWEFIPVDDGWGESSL

B1: luminal domain (LD) of human SV2C (domain or fragment, UniProt Q496J9 456-574, looked up)
chain: DVIKPLQSDEYALLTRNVERDKYANFTINFTMENQIHTGMEYDNGRFIGVKFKSVTFKDSVFKSCTFEDVTSVNTYFKNCTFIDTVFDNTDFEPYKFIDSEFKNCSFFHNKTGCQITFD
notes: also called SV2C-LD; untagged SV2C-LD; not shown: 6xHis, N-terminal, cleaved
In the case of B1, the binding result is listed as “binds”.
